Test results from patent US8507433B1, “Cardioprotective effects of GHRH agonists” (University of Miami, priority 2010, dated 2013).
Where “and” joins values, the source holds several entries; their conditions need not be identical. Equal values may be shown once. Marks after values point to notes of the source that are not given here.

B1: rrGH: Rat recombinant GH supplied by National Hormone and Pituitary Program (NHPP) (protein, UniProt P01244 27-216, looked up)
Somatotropin: FPAMPLSSLFANAVLRAQHLHQLAADTYKEFERAYIPEGQRYSIQNAQAAFCFSETIPAPTGKEEAQQRTDMELLRFSLLLIQSWLGPVQFLSRIFTNSLMFGTSDRVYEKLKDLEEGIQALMQELEDGSPRIGQILKQTYDKFDANMRSDDALLKNYGLLSCFKKDLHKAETYLRVMKCRRFAESSCAF

How the values were obtained:
[1] = target: rat GHRH receptor (GHRHR) in membrane fractions from ischemic rat heart (rat) (UniProt Q02644); experiment: radioligand binding: in vitro ligand competition assay with radioiodinated JV-1-42 on ischemic rat heart membrane fractions
serum IGF-I = experiment: Rat serum IGF-I (radioimmunoassay) after 4-week treatment; format: in vivo; settings: rats post-MI, blood 1-2 hours after last injection, vs. placebo
Protocol: (§1) MI induced by coronary artery ligation was performed in female 6-month-old Fisher-344 rats as described previously (40). Animals were randomly assigned to receive placebo, GHRH-agonist (GHRH-A [JI-38], 50 μg/kg) or rat recombinant GH (rrGH, 0.5 mg/kg) starting 2 hours post-surgery. All treatment was given subcutaneously twice daily for 4 weeks. The Institutional Animal Care and Use committee of University of Miami approved all protocols and experimental procedures.
(§2) At the end of the study, blood was drawn 1-2 hours after the last rrGH or GHRH-A injection and the serum was stored at −80° C. until the measurements were done. All the samples were assayed together and each sample was assayed in duplicate. Rat serum GH was measured using a rat GH Enzyme-Linked Immunosorbent Assay (ELISA) Kit (DSL-10-72100, DSL Webster, Tex.), following the manufacturer's recommendations. This test is an enzymatically amplified “one-step” sandwich-type enzyme immunoassay, where standards, controls and unknown samples are incubated in microtitration wells precoated with the anti-rat GH antibody. The standard curve of the assay was established with samples provided by the manufacturer. Rat serum IGF-I was measured using a rat IGF-I Radioimmunoassay Kit (DSL-2900, DSL Webster, Tex.), after extraction with acid ethanol, following the manufacturer's recommendations. […]

[2] = system: female 6-month-old Fisher-344 rats, MI induced by coronary artery ligation; experiment: Body weight and heart weight after MI, 4-week treatment; format: in vivo, rat; settings: mean±SEM; for Heart weight (HW) / body weight (BW) after MI: rats post-MI; for Heart weight (HW): after 4-week treatment; for body weight (BW) after MI: week 4, s.c. twice daily 4 weeks, GHRH-A 50 μg/kg or rrGH 0.5 mg/kg; for body weight (BW), baseline: rats, baseline before MI and treatment
Protocol: as §1
(§3) At the end of the study, rat hearts were harvested for further analysis. Hearts were weighted and the basal portion, free of fibrotic tissue, was flash-frozen in liquid nitrogen for total RNA isolation and protein analysis. Remaining tissue was fixed with 10% formalin for histology.

[3] = system: female 6-month-old Fisher-344 rats, MI induced by coronary artery ligation; experiment: Echocardiographic measurements post-MI; format: in vivo, rat; settings: echocardiography
Protocol: as §1
Echocardiographic measurements were obtained at baseline, 2 days, 1, 2 and 4 weeks. Echocardiographic assessments were performed in anesthetized rats (2% isoflurane inhalation) using a Vevo-770 echocardiogram (Visual Sonics Inc., Toronto, Ontario, Canada) equipped with a 17.5-MHz transducer. Cardiac dimensions: LV end diastolic (LVEDD), end systolic (LVESD) diameters and fractional shortening (FS) were recorded from M-mode images using averaged measurements from 3 to 5 consecutive cardiac cycles according to the American Society of Echocardiography (1). Ejection fraction (EF) was calculated from bi-dimensional long-axis parasternal views taken through the infarcted area. All images were analyzed using Vevo 770 3.0.0 software (Visual Sonics Inc., Toronto, Ontario, Canada).

serum GH = experiment: Rat serum GH (ELISA) after 4-week treatment; format: in vivo; settings: rats post-MI, blood 1-2 hours after last injection, vs. placebo
Protocol: as §1, §2

[4] = system: Bcl2 and Bax gene expression; experiment: Real-time PCR of pro-apoptotic and anti-apoptotic genes (Bax, Bcl2) in rat heart; format: in vivo; settings: rt-qPCR
Protocol: (§4) Total RNA from heart tissue was extracted using Trizol (Invitrogen, Carlsbad, Calif.). The quality of RNA isolated was tested using NanoDrop1000 (Thermo Fisher Scientific Inc., Wilmington, Del.). OD 260/280 ratio was in the range of 1.8 to 2.1 for all samples.
The monitoring of pro-apoptotic and anti-apoptotic genes was also assessed by real time PCR. First-strand cDNA was synthesized from 1 μg total RNA using the High-Capacity cDNA Reverse-Transcription Kit (Applied Biosystems, Inc., Foster City, Calif., USA), and ribosomal 18S RNA served as the housekeeping gene. We used TaqMan probes labeled with 6-carboxyfluorescein (FAM) for real-time RT-PCR reactions, according to manufacturer's protocol (Applied Biosystems, Inc., Foster City, Calif., USA). Data were analyzed by the threshold cycle (Ct) relative quantification method.

[5] = system: female 6-month-old Fisher-344 rats, MI induced by coronary artery ligation; experiment: Hemodynamic measurements (LV pressure-volume catheterization) post-MI; format: in vivo, rat; parameters: SW (stroke work) / Ees (end-systolic elastance): unit not given here; settings: rats post-MI after 4-week treatment; for Heart rate: LV catheterization; for LVEDP / LVEDV: preload
Protocol: as §1
Rats were anesthetized by intramuscular injection of a mixture of ketamine (100 mg/kg), xylazine (20 mg/kg) and acepromazine (10 mg/kg). A 2-F micromanometer tipped catheter (SPR-838, Millar Instruments, Houston, Tex.) was inserted into the right carotid artery and advanced retrograde into the left ventricle. Measurements were calibrated by injecting a hypertonic saline (15%) bolus to determine extra-ventricular conductance; relative volume units were converted to actual volume using the cuvette calibration method (2). All analyses were performed using PVAN 3.0 software (Millar Instruments, Houston, Tex.).

[6] = system: female 6-month-old Fisher-344 rats, MI induced by coronary artery ligation; experiment: Histopathology: MI size, fibrosis, capillary density, myocyte width; format: in vivo, rat; settings: rats post-MI after 4-week treatment
Protocol: as §1, §3
Slides were prepared with H&E and Masson's trichrome stain to assess cardiac structure and the presence and extent of fibrosis and myocardial scar, respectively. The size of MI was determined using NIH Image version 1.30v for Windows to quantify the percentage area of fibrosis. An image-processing software (Imaging Processing Toolkit 5.0, Reindeer Graphics, Asheville, N.C.) and Adobe Photoshop CS2 (San Jose, Calif.) were used to assess the slides as previously described with minor modifications (3). The percentage of fibrosis was calculated by using the following formula: % fibrosis=fibrotic area/(fibrotic area+healthy area)
H&E stained sections of hearts from midventricular level were used to measure the myocyte width. At least 35-50 cardiomyocytes were counted and averaged at the level of the nuclei in non-infarcted remote myocardium.

GHRH-R mRNA = experiment: Real-time PCR of mRNA for GHRH-R and β-actin in rat heart tissue; format: in vivo; settings: normalised to β-actin, Pfaffl method
Protocol: as §4
The expression of GHRHR was measured using real-time quantitative PCR as described previously by Havt et al (6).
We evaluated the mRNA expression of rat GHRH receptor (GHRH-R) and β-actin. The probes designed to evaluate the expression of GHRH-R and β-actin are 5′-/Cy5/ACCTCCGACTTTCTCAGTTCCTGTATGCCC/BHQ—2/-3′ and 5′-/6-FAM/ATCCTGCGTCTGGACCTGGCTGGC/BHQ—1/-3′, respectively. Gene specific primer sequences were the following: GHRH-R (sense) 5′-[…]-3′ and 5′-TGGTTTCCCTGGGCCTTGG-3′ (antisense) with a product size of 110 bp, β-actin: (sense) 5′-GGGTTACGCGCTCCCTCAT-3′ and 5′-[…]-3′ (antisense) with a product size of 133 bp.
All real-time PCR reactions were performed in the iCycler iQ™ Real-Time PCR Detection System (Bio-Rad, Hercules, Calif.). Thermal cycling conditions comprised an initial denaturation step at 95° C. for 3 min followed by 45 cycles at 95° C. for 30 sec and an annealing temperature at 60° C. for GHRH-R and β-actin for 1 min. As final steps, we included two cycles: one at 95° C. and the other at 60° C., both for 1 min. […]

[7] = system: Ki67 positive cells and c-kit+ cardiac precursor cells in rat heart; experiment: Immunostaining for Ki67 and c-kit positive cells in heart sections; format: in vivo; settings: remote zone, relative to placebo and GHRH-A
Protocol: as §1
Paraffin sections were deparaffinized and rehydrated by immersion in xylene and a graded series of ethanols. Antigen retrieval was performed by a heat-induced method with citrate buffer (Dako, Carpinteria, Calif.). After blocking with 10% normal donkey serum, sections were incubated with a primary antibody (table S3), at 37° C. for 1 hour, followed by application of secondary antibody. Omission of the primary antibodies on parallel sections was used as negative control. Nuclei were counterstained with DAPI (Invitrogen, Carlsbad, Calif.). The total numbers of positively-stained cells were quantified per slide to calculate the number of cells per unit volume (mm^3) on each sample. Morphometric analysis was performed by using Adobe Photoshop CS3 (San Jose, Calif.)

UniProt Q02644, sequence (Q02644 23-464): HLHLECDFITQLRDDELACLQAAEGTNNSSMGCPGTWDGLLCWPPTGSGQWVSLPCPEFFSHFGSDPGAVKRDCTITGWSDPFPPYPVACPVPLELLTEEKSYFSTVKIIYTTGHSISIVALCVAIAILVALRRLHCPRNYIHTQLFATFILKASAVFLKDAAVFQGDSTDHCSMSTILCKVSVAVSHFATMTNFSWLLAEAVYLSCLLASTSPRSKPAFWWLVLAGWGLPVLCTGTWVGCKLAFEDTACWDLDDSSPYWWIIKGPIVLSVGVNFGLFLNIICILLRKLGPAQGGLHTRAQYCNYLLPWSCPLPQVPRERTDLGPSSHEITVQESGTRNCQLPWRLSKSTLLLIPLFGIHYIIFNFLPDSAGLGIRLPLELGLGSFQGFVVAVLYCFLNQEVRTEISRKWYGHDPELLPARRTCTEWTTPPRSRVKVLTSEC

| Molecule | serum IGF-I (serum IGF-I) | Heart weight (HW) [2] [mg] | body weight (BW) after MI [2] [g] | body weight (BW), baseline [2] [g] | EF ([3]; 4 weeks (W4) post-MI) | FS ([3]; 4 weeks (W4) post-MI) [%] | LVEDD ([3]; 4 weeks (W4) post-MI) [mm] | EF ([3]; baseline (BSL)) [%] | FS ([3]; baseline (BSL)) [%] | LVEDD ([3]; baseline (BSL)) [mm] | LVESD ([3]; baseline (BSL)) [mm] | serum GH (serum GH) | Heart rate [5] [bpm] | LVESP ([5]; afterload) [mmHg] | Ees (end-systolic elastance) ([5]; contractility) | LVEDP [5] [mmHg] | LVEDV [5] [µL] | capillary density [6] | Ratio (GHRH-R gene expression level in treatment group compared to placebo group) (GHRH-R mRNA) | further results |
| --- | --- | --- | --- | --- | --- | --- | --- | --- | --- | --- | --- | --- | --- | --- | --- | --- | --- | --- | --- | --- |
| GHRH antagonist JV-1-42 (radioiodinated derivative) (peptide) |  |  |  |  |  |  |  |  |  |  |  |  |  |  |  |  |  |  |  | Bmax (fmol/mg protein) [1]: 51.3; Kd [1]: 0.86 nM |
| [Dat^1, Gln^8, Orn^12,21, Abu^15, Nle^27, Asp^28, Agm^29]hGH-RH(1-29)NH2 [GHRH-A] | did not increase | 695 ± 26 | 225 ± 3 | 231 ± 5 | 47±4% and 47.2 ± 4.0 ¶ % | 28.7±3.3 | 7.7 ± 0.2 | 85.7 ± 1.6 | 53.1 ± 1.0 | 6.3 ± 0.2 | 2.9 ± 0.1 | did not increase | 270 ± 17 | 83 ± 1.1 | 0.19 ± 0.02 | 8 ± 0.5 | 421 ± 26 | 0.006±0.001 /mm^2 | 1.91 | expression of anti-apoptotic gene (Bcl2) [4]: upregulated; expression of pro-apoptotic gene (Bax) [4]: trended to be downregulated; ratio between Bax and Bcl2 expression ([4]; in comparison to placebo or rrGH): significantly reduced; Ea (arterial elastance) ([5]; afterload): 0.5 ± 0.004 mmHg/μl |
| B1 | 1052 ± 91 ng/mL | 850 ± 38 | 256 ± 3 | 217 ± 4 | 44±2% and 44.3 ± 2.3% | 20.3±1.3 | 8.6 ± 0.1 | 89.2 ± 0.4 | 58.2 ± 0.7 | 5.9 ± 0.1 | 2.3 ± 0.1 | 679 ± 196 ng/mL | 247 ± 6.8 | 91 ± 2.3 | 0.33 ± 0.12 | 10 ± 1.8 | 351 ± 38 | 0.02±0.002 /mm^2 | 2.10 * | expression of Ki67 positive cells [7]: higher; LVESD ([3]; 4 weeks (W4) post-MI): 6.8 ± 0.2 mm; PRSW ([5]; contractility): 48 ± 5.0 mmHg; dP/dtmax ([5]; contractility): 6243 ± 313 mmHg/s; dP/dtmax_EDV ([5]; contractility): 17.5 ± 4.3 mmHg/s/l; dP/dtmin ([5]; lusitropy): 4028 ± 334 mmHg/s; CO (cardiac output) ([5]; pressure-volume derived): 22.5 ± 3.4 mL/min; EF ([5]; pressure-volume derived): 26.2 ± 1.7%; SV (stroke volume) ([5]; pressure-volume derived): 98 ± 13 µL; SW (stroke work) ([5]; pressure-volume derived): 6920 ± 790; Ea/Ees ([5]; ratio between arterial elastance and end-systolic elastance): 4.4 ± 0.6; TAU (G) ([5]; relaxation time constant, Glantz method): 19.9 ± 0.4 ms; MI size (infarct size) ([6]; Masson's trichrome): 45±2%; percentage of ventricular fibrosis [6]: 27±1% |
